Results reported in the supplement of paper PMC10899765.

Columns and labels:
Conditions in all cases: 20 nM; 72 h
MCF10A [1] = assay: percent viability (nuclei count relative to siNT); higher = more viable cells
Experimental: (§1)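 After 72 h, cells were fixed and stained with Hoechst and anti-fibrillarin, and nucleoli per nucleus were counted with CellProfiler. Values are plate-adjusted percent effect for the one-nucleolus and 5+ nucleoli phenotypes, normalised to siNT (0%) and to the positive controls siNOL11 or siKIF11 (100%), as the mean of biological triplicates. Percent viability is the nuclei count relative to siNT.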

MCF10A [2] = assay: one-nucleolus phenotype percent effect (relative to siNT 0% and siNOL11 100%); higher = more cells with one nucleolus (ribosome biogenesis inhibition)
Experimental: as §1

MCF10A [3] = assay: 5+ nucleoli phenotype percent effect (relative to siNT 0% and siKIF11 100%); higher = more cells with five or more nucleoli
Experimental: as §1

UGCCUGGGUCUCUGGCCUGCGCGU [hsa-miR-661]
percent viability (MCF10A [1]): 23%
one-nucleolus phenotype percent effect (MCF10A [2]): 23.1%
5+ nucleoli phenotype percent effect (MCF10A [3]): -18.5%

UGCCUUCCUGUCUGUG [hsa-miR-4297]
percent viability (MCF10A [1]): 20.9%
one-nucleolus phenotype percent effect (MCF10A [2]): 16.6%
5+ nucleoli phenotype percent effect (MCF10A [3]): -10.3%

UGCGACAUUGGAAGUAGUAUCA [hsa-miR-3683]
percent viability (MCF10A [1]): 61.1%
one-nucleolus phenotype percent effect (MCF10A [2]): -0.47%
5+ nucleoli phenotype percent effect (MCF10A [3]): -3.56%

UGCGCCUCGGGUGAGCAUG [hsa-miR-668-5p]
percent viability (MCF10A [1]): 43.2%
one-nucleolus phenotype percent effect (MCF10A [2]): -14.2%
5+ nucleoli phenotype percent effect (MCF10A [3]): 37.3%

UGCGGCAGAGCUGGGGUCA [hsa-miR-6820-5p]
percent viability (MCF10A [1]): 16.9%
one-nucleolus phenotype percent effect (MCF10A [2]): 11.9%
5+ nucleoli phenotype percent effect (MCF10A [3]): 3.87%

UGCGGCCGGUGCUCAACCUGC [hsa-miR-1199-3p]
percent viability (MCF10A [1]): 22.1%
one-nucleolus phenotype percent effect (MCF10A [2]): 23.8%
5+ nucleoli phenotype percent effect (MCF10A [3]): -6.68%

UGCGGGGACAGGCCAGGGCAUC [hsa-miR-4749-5p]
percent viability (MCF10A [1]): 21.9%
one-nucleolus phenotype percent effect (MCF10A [2]): 50.5%
5+ nucleoli phenotype percent effect (MCF10A [3]): -24.9%

UGCGGGGCUAGGGCUAACAGCA [hsa-miR-744-5p]
percent viability (MCF10A [1]): 12%
one-nucleolus phenotype percent effect (MCF10A [2]): 53.9%
5+ nucleoli phenotype percent effect (MCF10A [3]): -35.1%

UGCGUUUCUCCUCUUGAGCAG [hsa-miR-6854-3p]
percent viability (MCF10A [1]): 23.5%
one-nucleolus phenotype percent effect (MCF10A [2]): 21.3%
5+ nucleoli phenotype percent effect (MCF10A [3]): -12.2%

UGCUAGUCUGGACUGAUAUGGU [hsa-miR-8086]
percent viability (MCF10A [1]): 31.7%
one-nucleolus phenotype percent effect (MCF10A [2]): -8.07%
5+ nucleoli phenotype percent effect (MCF10A [3]): -8.54%

UGCUAUGCCAACAUAUUGCCAU [hsa-miR-31-3p]
percent viability (MCF10A [1]): 34.2%
one-nucleolus phenotype percent effect (MCF10A [2]): 27.9%
5+ nucleoli phenotype percent effect (MCF10A [3]): -33.1%

UGCUCAGGUUGCACAGCUGGGA [hsa-miR-3934-3p]
percent viability (MCF10A [1]): 52.8%
one-nucleolus phenotype percent effect (MCF10A [2]): 9.77%
5+ nucleoli phenotype percent effect (MCF10A [3]): -20.7%

UGCUGAGGUCCGGGCUGUGCC [hsa-miR-7160-5p]
percent viability (MCF10A [1]): 16.8%
one-nucleolus phenotype percent effect (MCF10A [2]): 47.5%
5+ nucleoli phenotype percent effect (MCF10A [3]): -22.1%

UGCUGAUGGCAGAUGUCGGGUCUG [hsa-miR-8075]
percent viability (MCF10A [1]): 20.8%
one-nucleolus phenotype percent effect (MCF10A [2]): 44.2%
5+ nucleoli phenotype percent effect (MCF10A [3]): -34.6%

UGCUGCCUCUCCUCUUGCCUGCAG [hsa-miR-6882-3p]
percent viability (MCF10A [1]): 45.6%
one-nucleolus phenotype percent effect (MCF10A [2]): -22.8%
5+ nucleoli phenotype percent effect (MCF10A [3]): 44.3%

UGCUGGAUCAGUGGUUCGAGUC [hsa-miR-1287]
percent viability (MCF10A [1]): 25.2%
one-nucleolus phenotype percent effect (MCF10A [2]): 64.1%
5+ nucleoli phenotype percent effect (MCF10A [3]): -26.2%

UGCUGGCUCAUUUCAUAUGUGU [hsa-miR-5580-5p]
percent viability (MCF10A [1]): 29.6%
one-nucleolus phenotype percent effect (MCF10A [2]): 22.1%
5+ nucleoli phenotype percent effect (MCF10A [3]): -18.4%

UGCUGGGGGCCACAUGAGUGUG [hsa-miR-4731-5p]
percent viability (MCF10A [1]): 20.7%
one-nucleolus phenotype percent effect (MCF10A [2]): 40.3%
5+ nucleoli phenotype percent effect (MCF10A [3]): -2.14%

UGCUGUAUUGUCAGGUAGUGA [hsa-miR-4999-5p]
percent viability (MCF10A [1]): 48.1%
one-nucleolus phenotype percent effect (MCF10A [2]): -7.82%
5+ nucleoli phenotype percent effect (MCF10A [3]): -10.3%

UGCUUAACCUUGCCCUCGAAA [hsa-miR-4804-3p]
percent viability (MCF10A [1]): 49.2%
one-nucleolus phenotype percent effect (MCF10A [2]): 20.5%
5+ nucleoli phenotype percent effect (MCF10A [3]): -30.7%

UGCUUAAGUUGUACCAAGUAU [hsa-miR-4720-3p]
percent viability (MCF10A [1]): 53.4%
one-nucleolus phenotype percent effect (MCF10A [2]): 7.73%
5+ nucleoli phenotype percent effect (MCF10A [3]): -20.7%

UGCUUCCUUUCAGAGGGU [hsa-miR-516a-3p]
percent viability (MCF10A [1]): 100%
one-nucleolus phenotype percent effect (MCF10A [2]): -10.2%
5+ nucleoli phenotype percent effect (MCF10A [3]): -23%

UGCUUCCUUUCAGAGGGU [hsa-miR-516b-3p]
percent viability (MCF10A [1]): 78.4%
one-nucleolus phenotype percent effect (MCF10A [2]): 8.29%
5+ nucleoli phenotype percent effect (MCF10A [3]): -29.9%

UGCUUCCUUUCUCAGCUG [hsa-miR-7162-5p]
percent viability (MCF10A [1]): 64.9%
one-nucleolus phenotype percent effect (MCF10A [2]): 0.399%
5+ nucleoli phenotype percent effect (MCF10A [3]): -13.8%

UGGAAAAAACUGGUGUGUGCUU [hsa-miR-3148]
percent viability (MCF10A [1]): 35.9%
one-nucleolus phenotype percent effect (MCF10A [2]): -7.81%
5+ nucleoli phenotype percent effect (MCF10A [3]): -1.39%

UGGAAGACUAGUGAUUUUGUUGU [hsa-miR-7-5p]
percent viability (MCF10A [1]): 51.8%
one-nucleolus phenotype percent effect (MCF10A [2]): 25.5%
5+ nucleoli phenotype percent effect (MCF10A [3]): -32.4%

UGGAAGGAGGUUGCCGGACGCU [hsa-miR-4533]
percent viability (MCF10A [1]): 46.4%
one-nucleolus phenotype percent effect (MCF10A [2]): 9.34%
5+ nucleoli phenotype percent effect (MCF10A [3]): -14.3%

UGGAAGGGAGAAGAGCUUUAAU [hsa-miR-3202]
percent viability (MCF10A [1]): 21.6%
one-nucleolus phenotype percent effect (MCF10A [2]): 62.8%
5+ nucleoli phenotype percent effect (MCF10A [3]): -35.3%

UGGAAUGUAAAGAAGUAUGUAU [hsa-miR-1]
percent viability (MCF10A [1]): 38.5%
one-nucleolus phenotype percent effect (MCF10A [2]): 8.45%
5+ nucleoli phenotype percent effect (MCF10A [3]): -15.8%

UGGAAUGUAAGGAAGUGUGUGG [hsa-miR-206]
percent viability (MCF10A [1]): 48.8%
one-nucleolus phenotype percent effect (MCF10A [2]): 48.4%
5+ nucleoli phenotype percent effect (MCF10A [3]): -23.7%
